Results as given in patent publication US20210047373A1, “BETA BARREL POLYPEPTIDES AND METHODS FOR THEIR USE” (UNIVERSITY OF WASHINGTON, priority 2018, published 2021).
Changes are numbered by the printed parent chain. In names and notes the source's numbering stands.

Assays:
[1] = Fluorescence brightness with DFHBI-1T; assay type: biochemical; settings: normalized 0 to 1 across all three chromophores; average ± SD of two protein concentrations
Protocol: (§1) Table 3A-C. Brightness and chromophore affinities of selected mFAP variants. Fluorescence brightness measurements at 10 μM (top table) and 100 nM (middle table) chromophore concentrations were normalized from 0 to 1 across all three chromophores (DFHBI, DFHBI-1T, and DFHO), and the normalized values for two protein concentrations tested for each chromophore at each chromophore concentration were averaged and standard deviations of the average computed. Reported values are the normalized averages and standard deviations of the means for each chromophore concentration and each chromophore. Reported relative densitometry values are the relative densitometry values normalized from 0 to 1 and represent how well each design expresses relative to one another in Lemo21(DE3) E. coli cultures. Thermodynamic dissociation constants (bottom table) are obtained by non-linear least squares fitting of chromophore titrations (n=1) to a single binding site isotherm, and values reported with the standard deviation of the fit. Where the obtained Kd values are below the protein concentration tested, the Kd and standard deviation of the fit are reported in parentheses. Values with “N/D” were not determined.

[2] = DFHBI titration of Ca2+-responsive mFAP variants in excess or absence of Ca2+; assay type: binding; settings: DFHBI titration in absence and presence of Ca^2+, n=1
Text: FIG. 23. In vitro fluorescence characterization of Ca^2+-responsive mFAP variants. […] Normalized fluorescence values (n=1) are fit to a sigmoid equation using non-linear least squares fitting (lines). […] Error bars represent the standard deviation of the mean of 3 technical replicates. The means are fit to a sigmoid equation (for positive allostery) or inverse sigmoid equation (for negative allostery) with Hill coefficients of 1 using non-linear least squares fitting (lines) to extract reported Kd values in Table 5.
DFHBI Kd^+(in excess Ca^2+), DFHBI Kd^−(in absence of Ca^2+), and Ca^2+Kd (in excess DFHBI) are computed by fitting the normalized fluorescence readouts from titrations to a single binding site isotherm equation with Hill coefficient of 1 using non-linear least squares fitting. Standard deviations of the fit are reported. Hill coefficients are reported for fitting the titration data to a single binding site isotherm with variable Hill coefficient using non-linear least squares fitting, and the standard deviation of the fit are reported. For positive allosteric modulators, Kd^−/Kd^+ is reported, and for negative allosteric modulators, Kd^+/Kd^− is reported. […]

[3] = tested on: E. coli cells; test: Confocal imaging of E. coli expressing mFAP2a or mFAP2b labeled with chromophore; assay type: cell-based; settings: for Chromophore selectivity, DFHBI versus DFHBI-1T: E. coli imaging
Text: FIG. 20: Characterization of brighter and chromophore-specific mFAP variants (mFAP2a and mFAP2b). (a) Design model of de novo β-barrel variant mFAP2b protein backbone (cartoon) bound to small molecule chromophore DFHBI (sticks). (b, c) Chemical structures of the chromophores DFHBI and DFHBI-1T, respectively. (d, e) In vitro titration of (d) DFHBI or (e) DFHBI-1T with purified mFAP2, mFAP2b, and mFAP2a proteins. mFAP2a/DFHBI, mFAP2a/DFHBI-1T, and mFAP2b/DFHBI complexes are brighter than the mFAP2/DFHBI complex. mFAP2a has higher affinity toward DFHBI compared to mFAP2b. mFAP2a binds DFHBI-1T with higher affinity than mFAP2 and the complex has brighter fluorescence than the DFHBI systems. Error bars represent standard deviation of the mean of 8 technical replicates. Shown are the non-linear least squares fits to a single binding-site isotherm equation (lines). […] (f-i) The images on the left of each panel were acquired using a laser scanning confocal fluorescence microscope and show pseudo-colored normalized fluorescence intensity values per pixel. Scale bars represent 10 microns. In the design models shown on the right of each panel the residues unique to mFAP2b (V13, M15) and residues unique to mFAP2a (A13, F15) are shown as sticks. Intermolecular hydrogen bonds to the chromophore are shown as black dotted lines. […]
It was hypothesized that a commercially-available variant of the DFHBI chromophore with a trifluoromethyl group, DFHBI-1T (FIG. 20 c), could pack into the void without causing steric clashes with nearby amino acid side-chains and could therefore fit into the mFAP2a binding pocket, while […] would result in steric clashes in the mFAP2b pocket. Studying the fluorescence of mFAP2a and mFAP2b in the presence of DFHBI-1T experimentally validated this hypothesis. […] Based on the absolute and relative quantum yields measured for these four complexes, the brightest protein-chromophore combination is mFAP2a with DFHBI-1T, with an absolute quantum yield of 12.9% (˜3.5-fold dimmer than EGFP).

[4] = Chromophore titration, fit to single binding site isotherm: DFHBI-1T; settings: n=1 titration; ± SD of the fit; Table 3C
Protocol: as §1

[5] = Chromophore titration, fit to single binding site isotherm: DFHBI; settings: for Kd: n=1 titration, ± SD of the fit, Table 3C, read-out: DFHBI Kd
Protocol: (§2) Fluorescence binding assay. Protein-activated DFHBI fluorescence signals were measured in 96-well plate format (Corning 3650) on a Synergy neo2 plate reader (BioTek, Inc) with λex=450 nm or 460 nm and λem=500 nm or 510 nm. Binding reactions were performed at […] in PBS pH7.4 buffer. Protein concentrations were determined by 280 nm absorbance as described above. DFHBI (Lucerna, Inc) were resuspended in DMSO as instructed to make 100 mM stock and diluted in PBS to 0.5-10 μM. Approximate emission spectra were recorded for active designs from 490 to 600 nm.
as §1

[6] = Chromophore titration, fit to single binding site isotherm: DFHO; settings: n=1 titration; ± SD of the fit; Table 3C
Protocol: as §1

[7] = Fluorescence brightness with DFHO; assay type: biochemical; settings: normalized 0 to 1 across all three chromophores; average ± SD of two protein concentrations
Protocol: as §1

[8] = Fluorescence activation / brightness with DFHBI; assay type: biochemical; settings: for Fluorescence brightness, 100 nM DFHBI / Fluorescence brightness, 10 μM DFHBI: normalized 0 to 1 across all three chromophores, average ± SD of two protein concentrations
Protocol: as §2, §1

[9] = tested on: fixed COS-7 cells; test: Photostability under continuous wave imaging; assay type: cell-based; settings: endoplasmic reticulum, 50 μM DFHBI, frame 1 to frame 200
Protocol: FIG. 21: Super-resolution microscopy and photostability of mFAP2a and mFAP2b. (a-g) To show the application of the mFAP system in super-resolution microscopy, mFAP2a and mFAP2b were fused to a designed protein polymerizing into a filament (DHF119). (a) The maximum diameter of the DHF119 fiber fused to the 6×His-tagged mFAP2b was estimated to be ˜22 nm based on the computational design models. (b-d) The DHF119-GS-mFAP2a-6×His fiber was labeled at 5.78 μM DFHBI-1T and (e-f) the DHF119-GS-mFAP2b-6×His was labeled at 1.83 μM DFHBI. Both systems were imaged with (b,e) fluorescence widefield microscopy and (c,f) fluorescence localization microscopy. Scale bars are 1 micron. (d,g) Normalized average intensity profiles between the yellow arrowheads shown in the widefield image (black line) or localization reconstruction (grey line) estimate the diameter of the fluorescent filament. The mean and standard deviation of the mean of the full width half maximum (FWHM) values of the three intensity profiles are annotated, 11-k) Photostability of mFAP2a and mFAP2b complexes with DFHBI and DFHBI-1T compared to AcGFP1. […] Normalized fluorescence intensity images are shown for four regions of interest (ROIs). (h, i) Frames 1 (left) to 200 (right) were acquired under continuous wave imaging at 0.885 Hz (1.13 s/frame). Scale bars are 10 microns. […]

[10] = Photophysical characterization (absorbance, excitation, emission, extinction coefficient, quantum yield); assay type: physicochemical

B1: mFAP2b: SEQ ID NO:69; mFAP2.5 with V67I (protein)
chain: MSRAAQLLPGTWQVTMTNEDGQTSQGQWHFQPRSPYTMDIVAQGTISDGRPIVGYGKATVKTPDTLDIDITYPSLGNIKAQGQITMDSPTQFKWDATTKGENDFHGRLTGTLQRQE
modifications: (1)..(1) optionally absent
- Fluorescence brightness, 100 nM DFHBI-1T [1]: 0.01 ± 0.0
- Fluorescence brightness, 10 μM DFHBI-1T [1]: 0.01 ± 0.0
- Allostery between Ca^2+ and DFHBI binding [2]: no allostery
- Fluorescent signal in E. coli with DFHBI-1T ([3]; 10 μM chromophore): does not give a fluorescent signal
- Chromophore selectivity, DFHBI versus DFHBI-1T [3]: pronounced chromophore selectivity
- Kd [4]: 42.2 ± 6.03 µM
- Weaker affinity for the chromophore than mFAP2 ([5]; DFHBI): ~14.1 fold
- Kd [5]: 1.67 ± 0.08 µM
- Kd [6]: 9.01 ± 1.91 µM
- Fluorescence brightness, 100 nM DFHO [7]: 0.01 ± 0.0
- Fluorescence brightness, 10 μM DFHO [7]: 0.01 ± 0.0
- DFHBI complex brighter than DFHBI-1T complex ([8]; FIG. 20 d,e): ~70 fold
- Brighter than mFAP2.4 ([8]; neutral pH): ~1.3 fold
- Brighter than mFAP2.5 ([8]; neutral pH): ~1.2 fold
- Fluorescence brightness, 100 nM DFHBI [8]: 0.82 ± 0.02
- Fluorescence brightness, 10 μM DFHBI [8]: 1.0 ± 0.0
- Brighter fluorescence than mFAP1 ([8]; protein at 10-fold higher concentration than DFHBI, peak emission 511 nanometers): approximately 4.5

B2: mFAP2a: SEQ ID NO:66 (protein)
chain: B1 chain with V14A, M16F
modifications: (1)..(1) optionally absent
- Photostability compared to AcGFP1 [9]: higher fluorescent signal is retained
- Fluorescence brightness, 100 nM DFHBI-1T [1]: 0.59 ± 0.06
- Fluorescence brightness, 10 μM DFHBI-1T [1]: 0.92 ± 0.05
- Chromophore selectivity, DFHBI versus DFHBI-1T [3]: pronounced chromophore promiscuity
- Kd [4]: 3.7 ± 0.56 µM
- Absolute quantum yield with DFHBI-1T [10]: 12.9%
- Brightness, times dimmer than EGFP ([10]; with DFHBI-1T): ~3.5 fold
- Kd [5]: 0.0546 ± 0.01 µM
- Kd [6]: 8.47 ± 1.99 µM
- Fluorescence brightness, 100 nM DFHO [7]: 0.03 ± 0.01
- Fluorescence brightness, 10 μM DFHO [7]: 0.04 ± 0.0
- Brighter fluorescence than mFAP2b ([8]; low DFHBI concentration (554.88 nM), neutral pH): ~1.3 fold
- Fluorescence brightness, 100 nM DFHBI [8]: 1.0 ± 0.0
- Fluorescence brightness, 10 μM DFHBI [8]: 0.77 ± 0.12
